The record followed here is the nanobody polyreactivity screen of Harvey et al. (2022).

The data set is described as follows: yeast display, Sf9 membrane polyspecificity reagent, FACS + sequencing; frameworks hold sequencing errors. Summed up:
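Using colony PCR, genes from sorted yeast display clones were amplified, then sequenced on MiSeq at 2 × 250 and filtered by CDR length. The clones had been stained with 10% biotinylated, detergent-solubilized Sf9 membrane reagent for 1 hour at 4 °C and sorted by FACS into low and high (top ~1%) gates on anti-HA and streptavidin fluorescence. Polyreactivity labels come from the gate of origin.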
“QVQLVESGGGLVPAGGSLRLICAASGSTFYGYAIGWYRPAPGKVRELVATITSGGTRTRYADSVKGRFTISRDNAKKTVYLQMNSLKPEDTAVYYCNAVYRARSYDYWGQGTQVTVSS”: the “polyreactivity (PSR sort gate)” value is “high polyreactivity”.

Take “QVQLVESGGGLVPAGGSLRLSCAASGFIFRYNTMGWYRQAPGKERELVAAITSGDSTYYADSVKGRFTISRDNAKNTVYLQMNSLKPEDTAVFYCAAAAYDSNGRYYYWGQGTQVSVSS”: the “polyreactivity (PSR sort gate)” value is recorded as “high polyreactivity”.

Take “QVQLVESGGGLVPAGGSLRLSCAASGFTFDSYAMGWYRQAPGKERELVAAMSYRGGTTYYADSVKGRFTISRDNAKNTVYLQMNSLKPEDTAVYYCTRLWKYGYNYWGQGTQVTVSS”: the “polyreactivity (PSR sort gate)” value is reported as “high polyreactivity”.

Turning to “QVQLVESGGGLVPAGGSLRLSCAASGITIGRNTMGWYRQAPGKERELVAAIDSGGNTYADSVKGRFTISRDNAKNTVYLQMNSLKPEDTAVYYCAVDGGEFSSYGYWGQGTQVTVSP”, the “polyreactivity (PSR sort gate)” value was “low polyreactivity”.

On to “QVQLVESGGGLVPAGGSLRLSCAASGRIFRGYAMGWYRQAHGKEREFVAAITKNGGTTYYADSVKGRFTISRDNAKNTVYLQMNSLKPEDTAVYYCNKDGYPWPPNLDYWGQGTQVTVSS”, for which the “polyreactivity (PSR sort gate)” value is “low polyreactivity”.

On to “QVQLVESGGGLVPAGGSLRLSCAASGRIFRVYAMGWYRQAPGKERELVASISSGGSTNYADSVKGRFTISRDNAKNTVYLQMNSLKPEDTAVYYCAADYWYRLFWYYGAPLDYWGQGTQVTVSS”, for which the “polyreactivity (PSR sort gate)” value was “low polyreactivity”.

In the case of “QVQLVESGGGLVPAGGSLRLSCAASGRTFYTNSMGWYRQAPGKERELVAAITYSGGSTYYADSVKWRFTISRDNAKNTVYLHMNSLKPEDTAVYYCAADYRAPLDYWGQGTQVTVSS”, the “polyreactivity (PSR sort gate)” value was “low polyreactivity”.

For the sequence “QVQLVESGGGLVPAGGSLRLSCAASGSIFYHNAMGWYRQAPGKERELVAAISYRTGRTYYADSVKGRFTISRDNAKNTVYLQMNSLKPEDTAVYYCAAPYSWGQATQVTVSS”, the “polyreactivity (PSR sort gate)” value is recorded as “high polyreactivity”.

“QVQLVESGGGLVPAGGSLRLSCAASGSMNTLYAMGWYRHAPGKERDLVADITRSGGSTYYADSVKGRFTISRDNAMNTVYLQMNSLKPEDTAVYYCAADKAPYSTEGDYWGQGTQVTVSS”: the “polyreactivity (PSR sort gate)” value is on record as “high polyreactivity”.

With “QVQLVESGGGLVPAGGSLRLSCAASGSTFCPYAMGWYRQAPGKERELVADITSSGGSTYYADSVKGRFTISRDNAKNTVYLQMNSLKPEDTAVYYCAADWSNLGAYDYWGQRTQVTVSS”, the “polyreactivity (PSR sort gate)” value is “low polyreactivity”.

Regarding “QVQLVESGGGLVPAGGSLRLSCAASGYTFQYNDRGWYRHAPGKETELVAGISIGGSTNYADSVKGRFTISRDNAKHTVYLQMNSLKPEDTAVYYCAARTLWFPGPTSTTVGYKDGYWGQGTQVTVSS”, the “polyreactivity (PSR sort gate)” value is recorded as “low polyreactivity”.

As to “QVQLVESGGGLVPAGGSLRLSCASSGRTFYPYAMGRYRQAPGKERELVAAITTSGGRTYYADSVKGRFTISRDNAKNTVYLQMNSLKPEDTGVYYCAKVYREGEGKFDYWGQGTQVTVSS”, the “polyreactivity (PSR sort gate)” value is reported as “high polyreactivity”.

As for “QVQLVESGGGLVPAGGSRRLSCAASGFTFGGYAMGWYRQAPGKETELVAAMRSSGDTTYDADSVKGRFTISRDNAKKTVNLQMNSLKPEDTAVYYCAARWGTYWGGLGGDPDIDYDDWGQGTQVTVSS”, the “polyreactivity (PSR sort gate)” value is reported as “low polyreactivity”.

Take “QVQLVESGGGLVPARGSLRLSSAASGIIFSRYAMGWYRQAPGKERELVAAITRSGGDTYYADSVKGRFTISRDNAKTTFYLQMKSLTPEDSADYYCAAERTWYPWVATGYYWGQGTQVTVSS”: the “polyreactivity (PSR sort gate)” value is “low polyreactivity”.

In the case of “QVQLVESGGGLVQAAGRLRLSCAASGRIFQWNAMGWSRQAPGKERQLVATISSRGGSTYYADSVKGRFTISRDNEKITVYLQMNSLIPEDTAVYYCAARYYAKYRSYDYWGQGSQVTVSS”, the “polyreactivity (PSR sort gate)” value is “high polyreactivity”.

Consider “QVQLVESGGGLVQAAGSLLLSCAPSGFIFYYNAMGWYRQAPGKETELVATIRGSGGSTYYADSVKGRFTISRDYAKNTVYLQMNSLKPEDTAVYYCAASVQYRRLKKFYYWGQGTQVTVSS”, for which the “polyreactivity (PSR sort gate)” value is “high polyreactivity”.

For the sequence “QVQLVESGGGLVQAAGSLRLSCAASGFTFLRYAMGWYRQAPGKERELVAGITKSGGTTYYADSVKGRFTISRDNAKNTVYLQMNSLKPEDTAVYYCNALYSRRRRPYTDDYDYWGQGTQVTVSS”, the “polyreactivity (PSR sort gate)” value is reported as “high polyreactivity”.

For the sequence “QVQLVESGGGLVQAAGSLRLSCAASGLTFYYYAMGWYRQAPGKERELVAGISGSDGSTYYADSVNGRFTISRDNAKNSVYLQMNSLTPEDTAVYYCAAEYYYAWPLYYITDGIYDMYYWGQGTQVTVSS”, the “polyreactivity (PSR sort gate)” value was “low polyreactivity”.

Consider “QVQLVESGGGLVQAAGSLRLSCAASGRILDFYDMGWYRQAPGKERELVAAITSGTSTYYADSVKGRFTISRDNAKNTVYLQMNSMKPEDTAVYYCAAAHVPVGQYVYWYDYWGQGTQVTVSS”, for which the “polyreactivity (PSR sort gate)” value is on record as “low polyreactivity”.

As for “QVQLVESGGGLVQAAGSLRLSCAASGRTFSANAMGWYRQAPGKERELVATISSGGRTNYADSVKGRFTISRDNAKNTVYLQMNSLKPEDTAVYYCAKRGPYKRWYGRYDYCGQGTQVTVSS”, the “polyreactivity (PSR sort gate)” value is on record as “low polyreactivity”.

On to “QVQLVESGGGLVQAAGSLRLSCAASGSIFIQYAMGWYRQAPGKERELVAAITRRGGRTYYADSVKGRFTISRDNAKNTVYLQLNSLKPEDTAVYYCNAVPIGQWAYDYWGQGTQVTVSS”, for which the “polyreactivity (PSR sort gate)” value was “high polyreactivity”.

For the sequence “QVQLVESGGGLVQAAGSLRLSCAASGSIFTVYVMGWYRLAPGKEREFVATINWRGTSTYYADSVKGRFTISRDNEKNTVYLQMNSLKPEDTAVYYCAAVGSYYGGYDYWGQGTQVTVSS”, the “polyreactivity (PSR sort gate)” value is “high polyreactivity”.

Take “QVQLVESGGGLVQAAGSLRLSCAASGSISGYYAMGWYRQAPGKERELVASIRYTGARTYYADSVKGRFTISRDNAKNTVYLQMNSLKPEDTAVYYCAADVKRDRVWGGDYWGQGTQVTVSS”: the “polyreactivity (PSR sort gate)” value is recorded as “low polyreactivity”.

Consider “QVQLVESGGGLVQAAGSLRLSCAASGSPFSGYAMGWYRQPPGKQRELVAAISWRGVRTSYADSVKGRFTISRDNAKNRVYLQMNSLKPEDSAVYYCDAVRYITKEFYWGQGTQVTVSS”, for which the “polyreactivity (PSR sort gate)” value is on record as “high polyreactivity”.

For the sequence “QVQLVESGGGLVQAAGSLRLSCAASGSTFADNAMGWYRQAPGKEREMVAANSRRGGSTYYADSVKGRFTISLDNAKNTVYLQMNSLKPEDTAVYYCAKPSGLVVNQYRAGMEYWGQGTQVTVSS”, the “polyreactivity (PSR sort gate)” value is listed as “high polyreactivity”.

As for “QVQLVESGGGLVQAAGSLRLSCASSGSIIFYYAMGWYRQAPGNEREFVAAITRSGVRTYYADSVKGRFTISRDNAKNTVYLQMNSLIPEDTAVYYCIAEAYPYWYRGASREYDYWGQGTQVTVSS”, the “polyreactivity (PSR sort gate)” value is reported as “low polyreactivity”.

Regarding “QVQLVESGGGLVQAEGSLRLSCAASGNTFERNTMGWYRQATGKERELVAAISWSGGRTYYADSVKGRFTISRDNAKNTVYLQLNSLKPEDTAVYYCAATNYYYGAGYYYWGQGTQVTVSS”, the “polyreactivity (PSR sort gate)” value is “high polyreactivity”.

With “QVQLVESGGGLVQAGASLRISCAASGYTFYANAMGWYIQAPGKEREFVASITWSGGSTYYADSVKGRFTISRDNAKNTVYLQMNSLKPEDTAVYYCAAESWFKYDYWGQGTQVTLSS”, the “polyreactivity (PSR sort gate)” value is reported as “low polyreactivity”.

Take “QVQLVESGGGLVQAGASLRLICAASGSTFQGNAIGWNRQAPGKERELVAAISRSGGSTYADSVKGRFTISRDNAKNTVYLQLNSLKPEDTAVYYCAAYSGVGYLWFDYWGQGTQVTVSS”: the “polyreactivity (PSR sort gate)” value was “low polyreactivity”.

In the case of “QVQLVESGGGLVQAGASLRLSCAASGITFWGYAMGWYRQAPGKEREFVARINWSGGRTYYAESVKGRFTISRDNAKNTVYLEMNSLKPEDTAVYDCAATSLIYGYRTYDYWGQGTQVTVSS”, the “polyreactivity (PSR sort gate)” value was “high polyreactivity”.

On to “QVQLVESGGGLVQAGASLRLSCAASGLTFEYYTMGWYRQAPGKERELVAAITSSGGSTYYADSVKGRFTISRDNAKNTVYLQMNSLKPEDTAVYYCNAYWTYEFPSYDYWGQGTQVTVSS”, for which the “polyreactivity (PSR sort gate)” value was “low polyreactivity”.

As to “QVQLVESGGGLVQAGASLRLSCAASGRIYIYAMGWYRQAPGKEREMVAAITGGASTNYADSVKGRFTISRDNAKNTVYLQLISLKPEDTAVYYCNAVAYVYGSFRRRPMGYWGQGTQVTVSS”, the “polyreactivity (PSR sort gate)” value is listed as “high polyreactivity”.

On to “QVQLVESGGGLVQAGASLRLSCAASGRTFAYYAMGWYRQAPGKERELVATITSSVGRTYYADSVKGRFTISRDNAKNTVYLQINSLKPEDTAVYYCNASDWGRTRGGGYPWLYRYDYWGQGTQVTVSS”, for which the “polyreactivity (PSR sort gate)” value is “low polyreactivity”.

As for “QVQLVESGGGLVQAGASLRLSCAASGRTFHYYVKGWYRQAPGKERELVAAISRSGGRTYYADSVKGRFTISRDNAKNTVYLQMNSLNPEDTAVYFCAARSGYYYSEGAWRRDYWGQGTQVTLSS”, the “polyreactivity (PSR sort gate)” value is on record as “high polyreactivity”.

With “QVQLVESGGGLVQAGASLRLSCAASGRTLTGYAMGWYRQAPGKERELVAAITWRDSTYYADSVKGRFTISRDNAKNTVYLQMNSLKPEDTAVYYCNADNATYFVYEFNYWGQGTQVTVSS”, the “polyreactivity (PSR sort gate)” value is listed as “low polyreactivity”.

Regarding “QVQLVESGGGLVQAGASLRLSCAASGSIFIWYAMGWYRQAPGKERELVAAITSSGSTNYADSVKGRFTISRDNAKNPVYLQMNSLKPEDTAVYYCAAEYTYYTYNLNYWGQGTQVTVSS”, the “polyreactivity (PSR sort gate)” value is given as “low polyreactivity”.

On to “QVQLVESGGGLVQAGASLRLSCAASGSIFVLYGMGWYRQAPGKERELVAAISAGITNYADSVKGRFTISRDNAKNTVYLQMNSLKPEDTAVYYCATVDGAYQYTYDFWGQGTQVTVSS”, for which the “polyreactivity (PSR sort gate)” value is listed as “low polyreactivity”.

For “QVQLVESGGGLVQAGASLRLSCAASGSIFYDNAMGWYRQAPGKERELVASIRWSGDSTYYADSVKGRITISRDNAKNTVYLQMNSLKPEDTAVYYCAADPVEPYFTAIAYDYWGQGTQVTVSS”, the “polyreactivity (PSR sort gate)” value is on record as “low polyreactivity”.

Take “QVQLVESGGGLVQAGASLRLSCAASGSTFLLNAMGWYRQAPGKERELVAAITSSGGTNYADSVKGRFTISRDNAKNTVYLQMNSLKPEDTAVYYCNTRYSPGYQGSEVDYWGQGTQVTVSS”: the “polyreactivity (PSR sort gate)” value is on record as “low polyreactivity”.

Take “QVQLVESGGGLVQAGASLRLSCAASGSTFYFYTMGWYRQAPWKERELVAAITRDGSTYYADSVKGRFTISRDNAKNTVYLQMNSLKPEDTAVYYCNALRWAYKFSAYYYWGQGTQVSVSS”: the “polyreactivity (PSR sort gate)” value is recorded as “low polyreactivity”.

On to “QVQLVESGGGLVQAGASLRLSCAASGSTYVRNAMGWYRQAPGKERELVAAITSGGNTYADSVKGRFTISRDNAKNTVYLQMNSLKPEDTAVYYSAAANEFGDVWAQFDYWGQGTQVTVSS”, for which the “polyreactivity (PSR sort gate)” value is recorded as “low polyreactivity”.
